Reference: the DeepSol protein solubility set

Assay: soluble on expression in E. coli; label from the status in PepcDB or PDB records

Question: Which “soluble on expression in E. coli” value does the source give for “MSIFDHYQSRYEAAKDEEMSLQEFLALCKDDKSAYANAAERLLMAIGEPEIIDTAKDPRLSRIFSNRVISRYETFKDFYGMEDAIEQIVSYLKHAAQGLEERKQILYLLGPVGGGKSSLAEKLKSLMEAMPIYVLSANGERSPVNDHPFCLFKATEDGEILKTDYGIEQRYLRSIMSPWAAKRLHEFGGDITKFKVMKVRPSILDQIGIAKTEPGDENNQDISSLVGKVDIRKLEHYSQDDPDAYSYSGALCKANQGLMEFVEMFKAPIKVLHPLLTATQEGNFNGTEGLSAIPFDGMILAHSNESEWQTFRNNKNNEAFLDRVYIVKVPYCLRVSEEVKIYQKLLENSELSQAPCSPSTLETLAQFSILSRLKEPENSS” here?
Answer: not soluble

Question: With “MVGINNWSSNLDAYRILQEAQSLTEEPPHFDTAFPIEPESIAPPEHHNHRYVIGQEEHRVRRLAANRNKGRPSARAFGNARNNSTRN” as the sequence, how does the “soluble on expression in E. coli” value read?
Answer: not soluble

Question: For “MAHHHHHHMLTKDADCEKSQQQKLEEDIKSPCTPSFHWVSDEDPKSDRATNHGCAKPLDWSPQTPETPPMSVAELRVTTVADTSETETTSESATHGNELRANEGESSASGTLEKPAGGVAAAGGAAPAAVPQKTEERGSSVPLKHKRSYGASDAVSSSSCHVDALGDLAGSVRQHHPTSTHTLDTSSSNGVGDAAKHAVAAGHVDESLPPPLSGVFFPFTACDAVTTASLVTLISSYCDVLTLVQLMRVNRSAHLLATSDAVWKPLLVSMNLPPLLAAYERDNDYYDFFVKDIITTRALHGHYTFQAANAASGSRESVSTTSGSRSAVMNRNYVSRDEDSLQDDIFNIASLQLLISAASLGQSNHLIGRVQLLITYKNESMEVLQGSCRFSVHRRCFSLCCSAFGTVKRGPVFTVAVATVTKPWANEGFQHFREHKNGIRLVMAPVLWEGPSPGSQITENDILVVSRPKPVPSLITSTTGSAAANSSLGAPTASRG”, which “soluble on expression in E. coli” value is on record?
Answer: not soluble

Question: Which “soluble on expression in E. coli” value does the source give for “SNCRSEVLEVSVEGRQVEEAMLAVLHTVLLHRSTGKFHYKKEGTYSIGTVGIQDVDCDFIDFTYVRVSSEELDRALRKVVGEFKDALRNSGGDGLGQMSLEFYQKKKSRWPFSDECIPWEVWTVKVHVVALATEQERQICREKVGEKLCEKIINIVEVMSRHEYLPKMPTQSEVDNVFDTGLRDVQPYLYKISFQITEALGTSVTTTMRRLIKDTLAL” here?
Answer: soluble

Question: For “MSKPIEIEIRRAPVLGSSMAYRETGAQDAPVVLFLHGNPTSSHIWRNILPLVSPVAHCIAPDLIGFGQSGKPDIAYRFFDHVRYLDAFIEQRGVTSAYLVAQDWGTALAFHLAARRPDFVRGLAFMEFIRPMPTWQDFHHTEVAEEQDHAEAARAVFRKFRTPGEGEAMILEANAFVERVLPGGIVRKLGDEEMAPYRTPFPTPESRRPVLAFPRELPIAGEPADVYEALQSAHAALAASSYPKLLFTGEPGALVSPEFAERFAASLTRCALIRLGAGLHYLQEDHADAIGRSVAGWIAGIEAVRPQLAAVD”, which “soluble on expression in E. coli” value is on record?
Answer: soluble

Question: Which “soluble on expression in E. coli” value does the source give for “MSLREGYLPAVITVSGKDRPGVTAAFFRVLSANQVQVLDVEQSMFRGFLNLAAFVGIAPERVETVTTGLTDTLKVHGQSVVVELQETVQSSRPRSSHVVVVLGDPVDALDISRIGQTLADYDANIDTIRGISDYPVTGLELKVTVPDVSPGGGEAMRKALAALTSELNVDIAIERSGLLRRSKRLVCFDCDSTLITGEVIEMLAAHAGKEAEVAAVTERAMRGELDFEESLRERVKALAGLDASVIDEVAAAIELTPGARTTIRTLNRMGYQTAVVSGGFIQVLEGLAEELELDYVRANTLEIVDGKLTGNVTGKIVDRAAKAEFLREFAADSGLKMYQTVAVGDGANDIDMLSAAGLGVAFNAKPALKEIADTSVNHPFLDEVLHIMGISRDEGHHHHHH” here?
Answer: soluble

Question: For “MGSDKIHHHHHHGIGVNSSNRLGIDNFEFIRVLGKGSFGKVMLARVKETGDLYAVKVLKKDVILQDDDVECTMTEKRILSLARNHPFLTQLFCCFQTPDRLFFVMEFVNGGDLMFHIQKSRRFDEARARFYAAEIISALMFLHDKGIIYRDLKLDNVLLDHEGHCKLADFGMCKEGICNGVTTATFCGTPDYIAPEILQEMLYGPAVDWWAMGVLLYEMLCGHAPFEAENEDDLFEAILNDEVVYPTWLHEDATGILKSFMTKNPTMRLGSLTQGGEHAILRHPFFKEIDWAQLNHRQIEPPFRPRIKSREDVSNFDPDFIKEEPVLTPIDEGHLPMINQDEFRNFSYVSPELQP”, which “soluble on expression in E. coli” value is on record?
Answer: not soluble

Question: With “FRELTEREEAVRESHQRISTILESITDAFFSLDHSWRFTYLNGEAERLLGRTRDDLLGKSIWEEFAAAVGTRFDVEYRRAVASGTTATFEEYYPPLACWFEVHAYPSRDGLSVFFQDIT” as the sequence, how does the “soluble on expression in E. coli” value read?
Answer: not soluble

Question: With “MKRLLLIIICTLGILSCGVPKEVTVPDKHLNYKDNIVLYNEKPYTGKVKLKKIAEKEQFEEGYISVKDGKLEGITDFKNDAAKTHFKFDVKSGKFNGEYILKHPLIGDFVMNFENGELKELKGKFPNDINQDLIFDKDGNVNGLIEQGGKQLDFQGGVAVKDTLKVKMFLDTETKQKLVTEVYEGDKLMAREENILLFTVKDFTEELLPVTGLQ” as the sequence, how does the “soluble on expression in E. coli” value read?
Answer: not soluble

Question: With “MPREFKSFGSTEKSLLSKGHGEPSYSEIYAEPENFLEIEVHNPKTHIPNGMDSKGMFTDYEIICRTNLPSFHKRVSKVRRRYSDFEFFRKCLIKEISMLNHPKVMVPHLPGKILLSNRFSNEVIEERRQGLNTWMQSVAGHPLLQSGSKVLVRFIEAEKFVG” as the sequence, how does the “soluble on expression in E. coli” value read?
Answer: soluble

Question: Which “soluble on expression in E. coli” value does the source give for “MEGRIPPHSLEAEQSVLGAILLDYQVLDEIEGLLPTPEAFYAEAHRKIYAAMQGLRAEGSPVDLVTLAEELSRRGELDGVGGISYLMQLSEATPTAAYAEHYARIVAEKWTLRRLIQAAGEAMRLAYEEAGSLDEILDQAGKRILEVALAQTEVEARSMRELVHETFEHIEALFQNKGETAGVRTGFKELDQLIGTLAPGSLNIIAARPAMGKTAFALTIAQHAALKEGVGVGIYSLEMPAAQLVLRMMCSEARIDMNRVRLGQLSDRDFSRLVDVAGRLSEAPIFIDDTPDLTLMELRARARRLRSQHNVGLIIIDYLQLMSGPGGGQKGENRQQEIAAISRGLKALARELGVPVIALSQLSRAVEARPNKRPMLSDLRESGSIEQDADLVMFIYRDEYYNPHSEKAGIAEIIVGKQRNGPTGTVELQFHAQHVRFNDLAKEP” here?
Answer: soluble

Question: Which “soluble on expression in E. coli” value does the source give for “MGAFFVGVIWHFPVLAFCPLPDKPQWVAVRQVVDGDTLRLVDGRSVRLIGINAPEMGRKGRTSEPYAEAARRRLQALVKANDDRVGLVPGVEGKDKYGRTLAHIYSRNGDNLEAQLLSEGLGYRVAIAPNVRLSGCQQLAEQAARQAGVGLWRHSPVVAASDVRQSGFAVVRGRIEGIERNRGGVWLTLGSTLVLQVPARLQRNFPASFFDNLKGRQVEARGWVLDRSRRGGLKPGQRRWVLPLTDPSMLERISGLEHHHHHH” here?
Answer: not soluble

Question: For “MLNLSRLSRKLLGWLGRPLSAAHSGEVRQRGPQTHVIILDGTMSTLEPGRETHAGQTYRLMCEMGARVSVFYEAGVQWTSWRTTPDVMMGRGLNRQIRRAYGYLASRYRPGDRIFLIGYSRGAYAVRSLAGVIDMVGLLKAEHATVRNIRQAYRHYECDVQGPHAQVFRDLYCHRDVMIEMVGVWDTVKALGLRLPVLWRLSEQRHAFHSHHLGRSVRHGYHALALNETRNVFEPILWDCKPEFRGHVEQVWFRGTHGDVGGQLGGDERARPLANLSLVWMLERAEHLGLPLPKDWHARFPTDPNAPSVGTWSGWGKIFLLRSARTVGRDPSERLHESVIGDTLPEGLPAPYLRSRSFGLEHHHHHH”, which “soluble on expression in E. coli” value is on record?
Answer: soluble

Question: Which “soluble on expression in E. coli” value does the source give for “GLDTLDRDGDGSTADADCNDFAPTIHPGAAEATLDGVDSNCDGRDSGVAEVVETFKNPGTYSSPVINFKIASPPGPGTPIYGPPRDFSGYNKSYSLAIGKTSYYDPTTGTKWNDDTITPVSDGQDIWRGWTHTGKWSFFNGKAGDKITLSVQRDAQEASLKGAHPGFILFWRPEGGPLFWAGTQDLDEGQTALPADSDTVIGHVIVQHADWTLQGLPPKADHTAPAGVDTELYPMKPDSYTMYYVDSGYDADKYVASKKLIMHPTAFKGLALNDGTAGAFTKSITLPKTGYYMLYVANVLEVDDWSVDADGKLTTTGEVWEVPAKGCWVNITISKP” here?
Answer: soluble

Question: With “AEKTNYAVTYKSDSVPSISMAVNTEQSSHYISQFIAVQGLEDHSAKSIFIQDMLQRIVSKRLMHYVREELSLDYAPYALMVNADSEFKPHWVMGAQVDPKNAELIESAIDKVIKDLLRGVTENEVNAAAKQLVVDLEPLKNNSTQQAWLLNRYTIHNYGIEALFGISETANSVNAEDINRLIKYSFGKNSHQFKYLSTPI” as the sequence, how does the “soluble on expression in E. coli” value read?
Answer: not soluble

Question: Which “soluble on expression in E. coli” value does the source give for “MGSDKIHHHHHHMATLSRLFIHPVKSMRGIGLTHALADISGLAFDRIFMVTEPDGTFITARQFPQMVRFTPSPLHDGLHLTAPDGSSALVRFTDFTPQDAPTEVWGNHFTARVAPTAINQWLSGFFSRDVQLRWVGPQLTRRVKRHNAVPLGFADGYPYLLTNEASLRDLQQRCPAGVQMEQFRPNLVVSGVAAWEEDSWKVLRIGDVIFDVVKPCSRCIFTTVSPEKGQKHPSGEPLATLQAFRTALDNGDVDFGQNLIARNSGVIRVGDEVEILATAPAKAYGATTVDNSVTPEKHPDASVTIDWQGQTFCGNNQQVLLEQLENQGIRIPYSCRAGICGCCRIRLLEGEVSPLKKSAMGDDGTILSCSCVPKTALRLEN” here?
Answer: not soluble

Question: For “MSLCGIAGWVSFERDLSTQRAVAETMTKTMALRGPDDEGLWLDRRAALGHRRLSIIDLEGGRQPMTADEDGRTLACLVYTGEVYNFRELRLELQGLGHAFRTRSDTEVVLRAYLQWGEAMLERLNGMYAFALWDAREQRLLLVRDRMGVKPLYYYPMPDGVLFGSEPKAILAHPEAERRVTAGGLREMLDLVKTPEAAAFAGMHEVRPGQVVTIDRGGLRKRRYWQLEAREHTDDLPTTIRTVRELLDDIVERQIIADVPLCTLLSGGLDSSVVTALAARSMRRQGKGTVRSFSVDFVKHGAAFEADYLRGSPDAPFVRDLAAHAGTEHREILLESRELADPRLRAAVLGAQDLPPAYWGDMLPSLYKLFEAIRAQSTVALSGESADEVFGGYRWFHDAAAVDGDAFPWLAGSSGAFFDGQSLIAPGLLRELDMPGFRRDSYAQALAEVPRLASDSTRERRMREISHMHLTRFVQALLDRKDRMSMAVGLEVRVPFCDHRLVEYVFNAPWSMKNFDGREKSLLRAAGKDVLPESIVRRVKSPYPATQDPAYEQALRQGLARVLDDSRSPALPLLDKAAAWKLLDRPFGKTSTSPERAGLEMALGLDEWLRHHQVSLDLEGHHHHHH”, which “soluble on expression in E. coli” value is on record?
Answer: not soluble

Question: Which “soluble on expression in E. coli” value does the source give for “MAHHHHHHMSKKERYKIWKRIPKCELHCHLDLCFSADFFVSCIRKYNLQPNLSDEEVLDYYLFAKGGKSLGEFVEKAIKVADIFHDYEVIEDLAKHAVFNKYKEGVVLMEFRYSPTFVAFKYNLDIELIHQAIVKGIKEVVELLDHKIHVALMCIGDTGHEAANIKASADFCLKHKADFVGFDHGGHEVDLKEYKEIFDYVRESGVPLSVHAGEDVTLPNLNTLYSAIQVLKVERIGHGIRVAESQELIDMVKEKNILLEVCPISNVLLKNAKSMDTHPIRQLYDAGVKVSVNSDDPGMFLTNINDDYEELYTHLNFTLEDFMKMNEWALEKSFMDSNIKDKIKNLYF” here?
Answer: not soluble

Question: For “MSLEVGFAPAEFTVTDKDGRKVFLSDYKGKYVLIYHWGLCPGTFWVNPKITDLYQKYHEKGLEVLGFTRDDLLKSLQGSSEEFKKDERVQGLLSHPWTTVYTEDEGNGFIVKDLYFSGVPILMLISPDGITLARGYTKAYEEVKNLLDRNLGNKEGHHHHHH”, which “soluble on expression in E. coli” value is on record?
Answer: soluble

Question: For “MGHHHHHHSHMANSAGSMANSAGSDKGEQYTLAVGHSLPPALESKLNEIDEISVKTFAKPEEAVDEGKADAYLNVPKEFDSYVNSMTPFKVDVYGNSIDQGSSNAMQLVQSALDQYKNEIVQQRLTNKHIDQSVIQPFTIQQKEADEEKGTSAI”, which “soluble on expression in E. coli” value is on record?
Answer: not soluble
